According to patent publication US20240327514A1 (Janssen / Centocor, published 2024):

Molecular target: T1, human CD123 (human, UniProt P26951 19-378)
T1 construct: whole, on cells; Target presented on CD123+ AML cell lines; also called CD123 on CD123+ AML cells
Assay: flow cytometry on tumor cell lines, detection with mouse anti-human IgG4
Procedure: All tumor cells were centrifuged, washed twice with Dulbecco's phosphate-buffered saline (DPBS) and 1×10^4 cells were added to the center of each well of a 96 well U bottom plate along with fragment crystallizable (Fc) block (human IgG1 fragment) which was added at 2 mg/mL for 10 minutes. Serially diluted bispecific antibodies were added to the appropriate wells. Plates were incubated in the dark at 37° C. with 5% CO₂ for 4 hours. The cells were then washed with DPBS and binding of the bispecific antibody was detected by staining with mouse anti-human IgG4 (Southern Biotech, clone HP6025, catalog #9200-09) and LIVE/DEAD (L/D; Invitrogen, catalog #L34976) for 30 minutes. Finally, cells were washed, resuspended in stain buffer, and analyzed on the FACSCanto II flow cytometer (BD Biosciences). Geometric mean fluorescence intensity (gMFI) was plotted in Prism version 7 (GraphPad). The X axis was log transformed and a 4 parameter non-linear curve fit was applied.

T1 sequence (P26951 19-378): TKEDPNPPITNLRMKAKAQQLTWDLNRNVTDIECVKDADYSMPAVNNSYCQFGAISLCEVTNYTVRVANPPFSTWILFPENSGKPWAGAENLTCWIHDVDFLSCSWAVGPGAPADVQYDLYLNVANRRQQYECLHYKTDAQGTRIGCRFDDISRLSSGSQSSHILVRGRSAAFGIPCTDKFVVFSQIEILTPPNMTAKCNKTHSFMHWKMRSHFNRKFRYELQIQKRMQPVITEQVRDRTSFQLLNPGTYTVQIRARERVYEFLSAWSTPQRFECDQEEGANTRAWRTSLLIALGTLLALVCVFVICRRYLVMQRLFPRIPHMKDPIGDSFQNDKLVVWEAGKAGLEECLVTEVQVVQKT

B1: CD123×CD3 bispecific antibody (bispecific antibody, human IgG4 S228P, kappa, lambda, F234A L235A)
heavy 1: not shown
light 1: EIVLTQSPGTLSLSPGERATLSCRASQSVSSSYLAWYQQKPGQAPRLLIYGASSRATGIPDRFSGSGSGTDFTLTISRLEPEDFAVYYCQQDYGFPWTFGQGTKVEIKRTVAAPSVFIFPPSDEQLKSGTASVVCLLNNFYPREAKVQWKVDNALQSGNSQESVTEQDSKDSTYSLSSTLTLSKADYEKHKVYACEVTHQGLSSPVTKSFNRGEC
heavy 2: EVQLVESGGGLVQPGGSLKLSCAASGFTFNTYAMNWVRQASGKGLEWVGRIRSKYNAYATYYAASVKGRFTISRDDSKNTAYLQMNSLKTEDTAVYYCTRHGNFGNSYVSWFAYWGQGTLVTVSSASTKGPSVFPLAPCSRSTSESTAALGCLVKDYFPEPVTVSWNSGALTSGVHTFPAVLQSSGLYSLSSVVTVPSSSLGTKTYTCNVDHKPSNTKVDKRVESKYGPPCPPCPAPEAAGGPSVFLFPPKPKDTLMISRTPEVTCVVVDVSQEDPEVQFNWYVDGVEVHNAKTKPREEQFNSTYRVVSVLTVLHQDWLNGKEYKCKVSNKGLPSSIEKTISKAKGQPREPQVYTLPPSQEEMTKNQVSLTCLVKGFYPSDIAVEWESNGQPENNYKTTPPVLDSDGSFLLYSKLTVDKSRWQEGNVFSCSVMHEALHNHYTQKSLSLSLGK
light 2: QAVVTQEPSLTVSPGGTVTLTCRSSTGAVTTSNYANWVQQKPGQAPRGLIGGTNKRAPGTPARFSGSLLGGKAALTLSGAQPEDEAEYYCALWYSNLWVFGGGTKLTVLGQPKAAPSVTLFPPSSEELQANKATLVCLISDFYPGAVTVAWKADSSPVKAGVETTTPSKQSNNKYAASSYLSLTPEQWKSHRSYSCQVTHEGSTVEKTVAPTECS
notes: also called CD123xCD3 DuoBody antibody
binding result: binds
